The values that follow come from publication PMC6172425, “Structural basis of inactivation of human counterpart of mouse motor neuron degeneration 2 mutant in serine protease HtrA2” (Bioscience Reports, 2018).

This series deals with the molecule itself. The series is described as follows: SEC; Superdex S200 HR 10/300, 10 mM HEPES pH 8.0, 100 mM NaCl, protein ~20 mg/ml, 0.2 ml/min; calibrated with BSA, alcohol dehydrogenase, β-amylase. In general terms: Size exclusion chromatography separates by hydrodynamic size, large species first.

Residue numbers refer to the chain shown, from its start. Numbers in names are those of the source.

B1: Recombinant mature (Δ133) human HtrA2 S276C (enzyme, UniProt O43464 134-458, looked up)
chain: AVPSPPPASPRSQYNFIADVVEKTAPAVVYIEILDRHPFLGREVPISNGSGFVVAADGLIVTNAHVVADRRRVRVRLLSGDTYEAVVTAVDPVADIATLRIQTKEPLPTLPLGRSADVRQGEFVVAMGSPFALQNTITSGIVCSAQRPARDLGLPQTNVEYIQTDAAIDFGNSGGPLVNLDGEVIGVNTMKVTAGISFAIPSDRLREFLHRGEKKNSSSGISGSQRRYIGVMMLTLSPSILAELQLREPSFPDVQHGVLIHKVILGSPAHRAGLRPGDVILAIGEQMVQNAEDVYEAVRTQSQLAVQIRRGRETLTLYVTPEVTE
notes: human serine protease HtrA2, mature processed form (Δ133): the 458 amino acid precursor without its first 133 residues, with S276C; Made by site-directed mutagenesis of the wild-type construct in pET-20b; also called hHtrA2S276C; human counterpart of the mouse mnd2 mutant; source: E. coli Rosetta (DE3), purified (Ni-NTA, gel filtration)
As to B1, the binding result is listed as “binds”.

B2: Recombinant mature (Δ133) human HtrA2, wild type (enzyme, UniProt O43464 134-458, looked up)
chain: B1 chain with C143S
notes: human serine protease HtrA2, mature processed form (Δ133): the 458 amino acid precursor without its first 133 residues, N-terminus AVPS; In pET-20b; PDB 1LCY is the S306A form of the mature protein; also called wt hHtrA2; hHtrA2; source: E. coli Rosetta (DE3), purified (Ni-NTA)
In the case of B2, the binding result is given as “binds”.
